Experimental data taken from the supplement of paper PMC12764529.
± gives the half width of the 95% confidence interval.

Tests used:
[1] = folding stability dG unfold (combined trypsin and chymotrypsin); higher = more stable
In short: (§1)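 Sequencing followed digestion of designed mini-proteins with trypsin and chymotrypsin, each at 11 concentrations in threefold dilutions together with a no-protease condition. The mini-proteins were under 80 residues, had no cysteine, sat in a PA-tagged cDNA display construct, and were kept only if AlphaFold2 dimer inter-PAE was above 15. From the counts, Bayesian fitting gave K50, and unfolding free energy was derived against a sequence-predicted unfolded-state K50 and a shared folded-state K50, per protease or combined.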

[2] = folding stability dG unfold from chymotrypsin proteolysis; higher = more stable
In short: as §1

| Sequence | folding stability dG unfold [1] | folding stability dG unfold [2] |
| --- | --- | --- |
| SAGGSAGGSGSSVERSPSGEVVTTTPTAGGTLRTVHDPSGTRTLTDVASGKVLATYTPAVPVASAGGSAGGS [r12_235_JUSTAS] | < -1 kcal/mol | -0.638 ± 0.31 kcal/mol |
| SAGGSAGGSIPPGEEVPLRIKIWNPDNGKPRNEIPITMWVGDAEEIAEEFASTFPGYRVEIDPSAGGSAGGS [r12_21_TrROS] | 0.102 ± 0.33 kcal/mol | 0.717 ± 0.23 kcal/mol |
| SAGGSAGGSMIVVPLERELDPSEPGLTKEEVKAILEAKGLDVVDIKVSTDPAKGLTRAVAKVKSAGGSAGGS [r12_1052_JUSTAS] | < -1 kcal/mol | -0.851 ± 0.35 kcal/mol |
| SAGGSAGGSMLKVRIKIEIDGKTLEVEIEVPPGTTIEELAEALKKLFPGKEVKIVSVEVYELPSAGGSAGGS [r12_427_TrROS_Hall] | 4.47 ± 0.25 kcal/mol | 4.23 ± 0.14 kcal/mol |
| SAGGSAGGSMPVTVTVTTPDGTTQTLTADAPPAQTFTVTVTGPDGDPRPVRVTVHGTTVTVEGSAGGSAGGS [r12_784_TrMRF] | < -1 kcal/mol | 0.227 ± 0.22 kcal/mol |
| SAGGSAGGSMTETVEKTMPSNGATAEITKLPDGSIKVTIKGSNPVIETFPADEPLVIKPGLEGSAGGSAGGS [r12_1003_JUSTAS] | 0.263 ± 0.18 kcal/mol | 0.621 ± 0.095 kcal/mol |
| SAGGSAGGSMVVTERSVRPVPRLVRTSDPSTGSSSVHLDPGAVETVRVIEEPPTPELLANTGASAGGSAGGS [r20_172_JUSTAS] | < -1 kcal/mol | -1.36 ± 0.33 kcal/mol |
| SAGGSAGGSSKTVPLKSEEEVKAVLEKLPPDAEYTVTDSEGKSKKVSPDEISFTPDPLTITVSSAGGSAGGS [r12_907_JUSTAS] | -0.131 ± 0.092 kcal/mol | 0.362 ± 0.043 kcal/mol |
| SAGGSAGGSTLVFAPDDTLYLRIYLPETGGWRYIEVPAGQADSVARPLGAVRLEAYRRDEPVPSAGGSAGGS [r12_294_TrMRF] | 0.123 ± 0.15 kcal/mol | 0.83 ± 0.23 kcal/mol |
| SAGGSAGGSTVEELKKKAKELGLEVTVEKNKKDKKKITITVSEEAKKKLKEIAKEENIKVEIKSAGGSAGGS [r12_74_TrROS_Hall] | -0.473 ± 0.47 kcal/mol | 0.0632 ± 0.051 kcal/mol |
| SAGGSAGGSVIPFPGNSRIYVTEVREDGVKIKFPDIGTEITVPANVPINLVGNPTIGPDGTPYSAGGSAGGS [r20_105_TrMRF] | < -1 kcal/mol | -0.946 ± 0.53 kcal/mol |
| SAGGSAGGSVTAVPIEELIPLPTPRTLKVTGTVYVLPGGEVVTERTLTEPSPGTVTVETKTIPLSAGGSAGG [r6_727_JUSTAS] | < -1 kcal/mol | -0.517 ± 0.4 kcal/mol |
| SAGGSAGGWFWVIKAEYPKNGRERSIQIPNEATDEDDVKEEVKELAEDLGAPIKKVEIEWIDPESAGGSAGG [r6_718_TrROS] | < -1 kcal/mol | -0.474 ± 0.34 kcal/mol |
| SAGGSAGGWVEQTYMVPPDMPVNMIKNKLEPWGVEIDDVEPFPNGNSIVTITIPPEFLKDPDEKSAGGSAGG [r6_470_TrROS] | -0.262 ± 0.51 kcal/mol | 0.574 ± 0.22 kcal/mol |
| SAGGSAGMKNVVKPVAPGTSMTLKVTKPDGTPRTLTFPPNYTATVKTLPEGGKDEIISLEPVPPELSAGGSA [r15_82_JUSTAS] | < -1 kcal/mol | -0.82 ± 0.53 kcal/mol |
| SAGGSAGPMVKTTEFSAVYTGPGGVSRGPVAVTVEIPPGDPSNPVLTVTLPDGTPRTLAAGEVEAASAGGSA [r15_954_JUSTAS] | -0.757 ± 0.27 kcal/mol | -0.672 ± 0.36 kcal/mol |
| SAGGSAGSHNQSPDGITLDAPLSSEEEIEALVAEVKAAAPPTYTVTVERTRSPSTLSVDVIVTAAPSAGGSA [r15_80_JUSTAS] | -0.895 ± 0.97 kcal/mol | -0.579 ± 0.19 kcal/mol |
| SAGGSAIKPGDPYVRIKFRMGNEPMEFTIPAEKIKKITVDDPDDQVTIRFPGNGRKFPMKLEEVEISAGGSA [r15_495_TrROS] | -0.41 ± 0.25 kcal/mol | -0.316 ± 0.33 kcal/mol |

| Sequence | folding stability dG unfold [1] | folding stability dG unfold [2] |
| --- | --- | --- |
| SAGGSALTIKVKDPEDIKDLEIQVYLPDGRPMLMKIEVQRDEGPPYVKIKAENPGNGKKRKETFPFSAGGSA [r15_1006_TrROS] | -0.243 ± 0.62 kcal/mol | 0.0249 ± 0.53 kcal/mol |
| SAGGSAMFTSSTSTDPATGLRRTTTLFPDSSAAVTTTVAVPPVPPLSPEAVAAGEAAAAAGRPPAVSAGGSA [r15_631_JUSTAS] | < -1 kcal/mol | 0.59 ± 0.17 kcal/mol |
| SAGGSAMKIEVEEFPVLVPPELIPELKDKPGAIVKVKKVKFYAEAPEEEREKLKKELEEKTGIKTESAGGSA [r15_347_TrMRF] | < -1 kcal/mol | 0.0727 ± 0.61 kcal/mol |
| SAGGSAMKTSLSRSTSTDPSDPNVTYKTTTTFLPDNTVLTNTTTTTRVGSSDVTTTTTTTTPIPAASAGGSA [r15_553_JUSTAS] | 0.135 ± 0.18 kcal/mol | 0.409 ± 0.18 kcal/mol |
| SAGGSAMKVEKEGDKVTIIVNAPESLNDKKVLTEKIKKAIEENKNKEVEIIAPPKYKPYAEETIKNSAGGSA [r15_89_JUSTAS] | -0.558 ± 0.39 kcal/mol | -0.217 ± 0.52 kcal/mol |
| SAGGSAMPSPITVTTFPGGTARLVEFPDGSTAVVEIVEEGPERVLVTTTTPPDGVPTTSVVPAAELSAGGSA [r15_941_JUSTAS] | -0.537 ± 0.21 kcal/mol | -0.0657 ± 0.072 kcal/mol |
| SAGGSAMSRTITVEITDPRNGKKLKNVVIDVPEDEDISDEEILKKIGIPEKEAKNIKVSKTTEELESAGGSA [r15_665_JUSTAS] | 0.169 ± 0.19 kcal/mol | 0.365 ± 0.17 kcal/mol |
| SAGGSAMTPQTLTLPDGTQVTVYYDPSTGKYTITTTTTTPTAQGTGPTTTTTKTVDSEEELLAYLSSAGGSA [r15_31_JUSTAS] | 4.5 ± 0.2 kcal/mol | 4.37 ± 0.13 kcal/mol |
| SAGGSAMVVVKITNPNGEKIEIEIEAETEEEAKKAAEELAKKLPKNVKVEVVKVEKVEVKDGKILKSAGGSA [r15_469_TrROS_Hall] | < -1 kcal/mol | -0.919 ± 0.74 kcal/mol |
| SAGGSANAEEIADWLQDRGFKEVEIEKDPENGNVTVEIRNPGGYEWELTINPKNPKITEIEPRPKKSAGGSA [r15_648_TrROS] | -0.523 ± 0.42 kcal/mol | 0.0797 ± 0.097 kcal/mol |
| SAGGSAPVIVKEASLEEIKELKKKGVKKIILVEKNPEIAEKIKKEFEKEDDIPIETVSEEEAKKLKSAGGSA [r15_243_TrMRF] | -0.718 ± 0.28 kcal/mol | -0.294 ± 0.13 kcal/mol |
| SAGGSARVVTAVARHPNSTEATLTVTDSGAAGGTSEITFASPEDLLAAIRNLPASVASVSVRPLLPSAGGSA [r15_589_TrMRF] | 0.422 ± 0.092 kcal/mol | 0.806 ± 0.028 kcal/mol |
| SAGGSASPELQKRIKDALQEENPDYPVTVDEVDPKNNTIMITFNSPWHQKRIEKALKEDGIKITIYSAGGSA [r15_196_TrROS] | -0.618 ± 0.27 kcal/mol | -0.0514 ± 0.38 kcal/mol |
| SAGGSAVGYYVETEIEKVEEKTYTFKPDGSPLKYFKNVKKNIKVKKVYVVKPTPDNSVIVDPNIPLSAGGSA [r15_162_JUSTAS] | < -1 kcal/mol | -0.618 ± 0.46 kcal/mol |
| SAGGSDPVSVSTEGGNTYVTVGDTPVLRLSKGKPEPPVLVTLPNGEVIEMPRSEALARDPSTIEFTPGSAGG [r13_802_JUSTAS] | -0.118 ± 0.12 kcal/mol | 0.368 ± 0.042 kcal/mol |
| SAGGSITTEKSLPETNLTLKTTYEGDTETVEIYHHPESDTPVLLAKETVTFSPDGSVSRKSTVVKIESAGGS [r8_69_JUSTAS] | -0.483 ± 0.27 kcal/mol | -0.0855 ± 0.17 kcal/mol |
| SAGGSMETTTLSSTPAELIATVEAEAAAAGKTISEITVTEDPATGLATVPVTIEITPAPALAPAARRSAGGS [r16_584_JUSTAS] | 0.249 ± 0.21 kcal/mol | 0.722 ± 0.065 kcal/mol |
| SAGGSMKVEYDESTGVTTITLPDGSTITFPAEDTGLTVEASLEDDTLTITVKDPNNPVPLETRTIPSSSAGG [r13_938_JUSTAS] | 0.393 ± 0.18 kcal/mol | 0.935 ± 0.036 kcal/mol |
